This assay deals with properdin-bound C3b (human) (UniProt P27918). Put plainly: ELISA, factor B titrated on C3b-coated plates with properdin. In general terms: ELISA stands for enzyme-linked immunosorbent assay.

Sequence of human factor B (P00751 other isoform, or with tags, fused parts or gaps limits assumed): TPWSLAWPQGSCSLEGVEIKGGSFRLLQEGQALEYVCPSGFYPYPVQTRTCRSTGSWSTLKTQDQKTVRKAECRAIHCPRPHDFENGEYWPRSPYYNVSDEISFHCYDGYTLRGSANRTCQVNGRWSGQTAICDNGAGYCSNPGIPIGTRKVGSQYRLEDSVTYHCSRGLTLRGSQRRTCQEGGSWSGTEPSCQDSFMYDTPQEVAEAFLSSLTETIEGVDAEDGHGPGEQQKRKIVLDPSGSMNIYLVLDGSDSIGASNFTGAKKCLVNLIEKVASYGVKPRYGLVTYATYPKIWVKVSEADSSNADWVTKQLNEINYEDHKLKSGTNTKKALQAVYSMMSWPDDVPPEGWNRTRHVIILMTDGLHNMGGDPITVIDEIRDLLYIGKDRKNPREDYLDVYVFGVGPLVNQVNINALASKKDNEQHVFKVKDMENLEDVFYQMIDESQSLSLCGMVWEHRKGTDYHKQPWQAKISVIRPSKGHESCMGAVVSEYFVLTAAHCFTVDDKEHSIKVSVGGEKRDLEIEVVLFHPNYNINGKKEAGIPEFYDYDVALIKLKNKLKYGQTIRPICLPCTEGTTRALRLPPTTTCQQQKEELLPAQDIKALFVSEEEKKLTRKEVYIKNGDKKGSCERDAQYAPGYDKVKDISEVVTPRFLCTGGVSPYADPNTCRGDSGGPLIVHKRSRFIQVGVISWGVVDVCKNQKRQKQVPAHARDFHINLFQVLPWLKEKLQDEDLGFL

The Kd is the free concentration of one partner at which half of the binding sites on the other are occupied at equilibrium, for simple one-to-one binding. A low value points to a tighter complex. On to “human factor B (from UniProt P00751 26-764) (enzyme)”, for which the Kd came to 1.11 nM.

For the origin of these results see patent publication US20160002348A1.
